{"source": "paper PMC9405524", "about": "“Pre‐steady‐state kinetics and solvent isotope effects support the “billiard‐type” transport mechanism in Na ^+‐translocating pyrophosphatase” (Protein Science : A Publication of the Protein Society, 2022)", "substrate": "O=P(O)(O)OP(=O)(O)O", "assay": "PPi hydrolysis in inverted membrane vesicles, automatic Pi analyzer, two-site dimer equation", "format": "biochemical, Thermotoga maritima", "settings": "40°C, pH 7.2, 0.1 M MOPS-KOH, 5 mM Mg2+, 10 mM NaCl, first (stronger) site of the dimer, concentration counted as Mg2PPi complex", "text": "PPi hydrolysis in inverted membrane vesicles, automatic Pi analyzer, two-site dimer equation on Tm‐mPPase (Thermotoga maritima membrane pyrophosphatase)", "data": [{"protein": "Tm‐mPPase (Thermotoga maritima membrane pyrophosphatase) (Thermotoga maritima MSB8) (protein, recombinant in E. coli C41(DE3), assayed in inverted membrane vesicles; homodimer, subunit mass 77 kDa) MYVAALFFLIPLVALGFAAANFAAVVRKPEGTERMKEISSYIRSGADSFLAHETKAIFKVAIVIAILLMIFTTWQTGVAFLLGAVMSASAGIVGMKMATRANVRVAEAARTTKKIGPALKVAYQGGSVMGLSVGGFALLGLVLVYLIFGKWMGQVDNLNIYTNWLGINFVPFAMTVSGYALGCSIIAMFDRVGGGVYTKAADMAADLVGKTELNLPEDDPRNPATIADNVGDNVGDVAGLGADLLESFVGAIVSSIILASYMFPIYVQKIGENLVHQVPKETIQALISYPIFFALVGLGCSMLGILYVIVKKPSDNPQRELNISLWTSALLTVVLTAFLTYFYLKDLQGLDVVGFRFGAISPWFSAIIGIFSGILIGFWAEYYTSYRYKPTQFLSKSSIEGTGMVISNGLSLGMKSVFPPTLTLVLGILFADYFAGLYGVAIAALGMLSFVATSVSVDSYGPIADNAGGISEMCELDPEVRKITDHLDAVGNTTAAIGKGFAIGSAIFAALSLFASYMFSQISPSDIGKPPSLVLLLNMLDARVIAGALLGAAITYYFSGYLISAVTKAAMKMVDEIRRQAREIPGLLEGKAKPDYNRCIEITSDNALKQMGYPAFIAILTPLVTGFLLGAEFVGGVLIGTVLSGAMLAILTANSGGAWDNAKKYLEAGNLEGYGKGSEPHKALVIGDTVGDPLKDTVGPSLDILIKIMSVVSVIAVSIFKHVHLF", "values": [{"measurement": "Km", "result": "1.41 ± 0.04", "unit": "µM"}]}]}
